The conditions of this data set: Carica papaya, Thermal, DSC, glycine 0.05M, reversible: No, whole UniProt chain shown.

B1: Papain wild type, P00784 (protein)
chain: MAMIPSISKLLFVAICLFVYMGLSFGDFSIVGYSQNDLTSTERLIQLFESWMLKHNKIYKNIDEKIYRFEIFKDNLKYIDETNKKNNSYWLGLNVFADMSNDEFKEKYTGSIAGNYTTTELSYEEVLNDGDVNIPEYVDWRQKGAVTPVKNQGSCGSCWAFSAVVTIEGIIKIRTGNLNEYSEQELLDCDRRSYGCNGGYPWSALQLVAQYGIHYRNTYPYEGVQRYCRSREKGPYAAKTDGVRQVQPYNEGALLYSIANQPVSVVLEAAGKDFQLYRGGIFVGPCGNKVDHAVAAVGYGPNYILIKNSWGTGWGENGYIRIKRGTGNSYGVCGLYTSSFYPVKN
As to B1, the Tm (usually the temperature at which the thermal transition is half complete) (pH 2.9) came out at 60.3 °C, the Tm (pH 3.8) came to 78.5 °C and the Tm (pH 4.1) was determined as 81.8 °C. Also, the “unfolding enthalpy (calorimetric)” value by setting is: (pH 2.9) 133 kcal/mol; (pH 3.8) 198 kcal/mol; (pH 4.1) 211 kcal/mol.

These data come from FireProtDB (doi:10.1016/0167-4838(93)90045-s).
